The text below walks through data of the nanobody polyreactivity screen of Harvey et al. (2022).

The nature of the data set: yeast display, Sf9 membrane polyspecificity reagent, FACS + sequencing; frameworks hold sequencing errors. A digest of the protocol: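 Galactose-induced (36–48 hours) yeast carrying a synthetic nanobody display library were exposed to 10% biotinylated, detergent-solubilized Sf9 membrane reagent at 4 °C for 1 hour. FACS followed streptavidin microbead enrichment, using low and high (top ~1%) gates for expression (anti-HA) and reagent binding (streptavidin). Colony PCR, MiSeq 2 × 250 sequencing and CDR-length filtering followed. Labels for polyreactivity reflect the gate of origin.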
“QVQLVESGGGLVQAGGSLRLSCAASGLTFGDYTMGWYRQAPGKERELVAAITGSGASTYYADSVKGRFTISRDNAQNTGYLQMNSLKPEDTAVYYCDAERTPSYRAYDYWGQGTQVTVSS”: the “polyreactivity (PSR sort gate)” value is listed as “low polyreactivity”.

For the sequence “QVQLVESGGGLVQAGGSIRLSCAASGSTFPGNAMGWYRQAPGKERELVASISGGGDSTYYADSVKGRFTISRDNAKNTVYLQMNSLKPEDTAVYYCAADTQGSVRPGYDYWGQGTQVTVSS”, the “polyreactivity (PSR sort gate)” value was “low polyreactivity”.

For the sequence “QVQLVESGGGLVQAGGSLRLSCAASGSIVKHYAMGWYRQAPGKERKLVATITRSGRTNYADSVKGRFTISRDNAKNTVYLQMNSLKPEDTAVYYCNTVRGGQSPHPVRYGYWGQGTQVTVSS”, the “polyreactivity (PSR sort gate)” value is “high polyreactivity”.

On to “QVQLQESVGGLVQAGGSLRLSCAASGNIFDADIMGRYRQAPGKERELVASITDGGSTNYADSVKGRFTISLDNAKNTVYLHMNSLKPEDTAVYYCAARPHRYTSRHGYWGQGTQVTVSS”, for which the “polyreactivity (PSR sort gate)” value is on record as “high polyreactivity”.

For the sequence “QVQLVESGRGLVQAGGSLRLSCAASGITFRYYAMGWYRPAPGKERELVAAITRGGRTNYADSVKGRFTISRDNAKNTVYLQMNSLKPEDTAVYYCATGRDSNFGNSYYYWGQGTQVTVSS”, the “polyreactivity (PSR sort gate)” value is “high polyreactivity”.

As to “QVQLVESGGGIVQAGGSLRLSCAASGRIFQFYAMGWYRQAPGKERELVAGITTSGGSTYYADSVKGRFTISRDNAKNTVYLQMNSLKPEDTAVYYCAASRHFARHRGYYFRYDYWGQGTQVTVSS”, the “polyreactivity (PSR sort gate)” value is given as “high polyreactivity”.

Turning to “QVQHVESGGGLVQAGGSLRLSCAASGFIFGYYTMGWSRQAPGKERELVAAITSGDSTNYADSVKGRFTISRDNAKNTVYLQMNSLKPEDTAVYYCNARGLFTWMDYWGQGTQVTVSS”, the “polyreactivity (PSR sort gate)” value is “low polyreactivity”.

Turning to “QVQHVESGGGLVQAGGSLRLSCAASGSTFKYYAMGWSRQAPGKERELVAAISLSGGRTSYADSVKGRFTISRDNAKNTVYLQMNSLKPVDTAVYYCAAASYFPRFNYWGQGTQVTVSS”, the “polyreactivity (PSR sort gate)” value is listed as “high polyreactivity”.

For “QVQLVESGGGLVQAGGSLRLSCAASGFTFRRNAMGWYRQAPGKERELVAAITRGGGSTYYADSVKGRFTISRDNAKNTVYLQMNSLKPEDTAVYYCAADGYYQYESWGQGTQVTVSS”, the “polyreactivity (PSR sort gate)” value is given as “high polyreactivity”.

Consider “QVQLVESGGGLVQAGGSLRLSCAASGFTLDVNAMGLYRHAPGKERELVATISWGGASRYYADSVKGRFTISRDNAKNTVYLQMNRLKPEDTAVFYCAAQFYYPDDKGGYDYWGQGTQVTVSS”, for which the “polyreactivity (PSR sort gate)” value is given as “low polyreactivity”.

Regarding “QFQLVESGGGLVQAGGSLRLSCAASGSTFRHNAMGWYRQASGKEREWVATIRTSGGTTYYADSVKGRFTISRDNAKNTVYLQMNSLKPEDTAFYYCAKDALFIDGGGGYDYWGQGTQVTVSS”, the “polyreactivity (PSR sort gate)” value was “low polyreactivity”.

Turning to “QVQLVESGGGLVQAGGSLRLSCAASGLTFVDNAMGWYRQAPGKERELVAAISFRDGSTYYADSVKGRFTISRDNAKNTVYLQMNSLKPEDTAVYYCAAVGQTHPTSPLSTKYDYWGQGTQVTVSS”, the “polyreactivity (PSR sort gate)” value is “low polyreactivity”.

On to “QVQLVESGGGLVQAGGSLRLSCAASGGIFGFNAMGWYRPAPGKERELVADISDGVRTNYADSVKGRFTISRDNAKNTVYLQMNSLKPEDTAVYYCATDGLFLAWAPLGALAFDYWGQGTQVTVSS”, for which the “polyreactivity (PSR sort gate)” value was “low polyreactivity”.

For “QVQIVESGGGLVQPGCSLRLSCAASGRIFYVYAMGWYRQAPGTEWELVASITNGGRTNYADSVKGRFTISRDNAKNTFYLQMNSLKPEDTAVYYCATAASNYLDYVGKYRYDYWVQGTQVTVSS”, the “polyreactivity (PSR sort gate)” value is “low polyreactivity”.

Turning to “QVQLVESGGGLVQAGGSLRLSCAAYGSIRNFYAMGWNRKAPGKERELVPTISSGGNTHYADSVKGRFTISRDNAKNTVYFQMTSLKPEDTAVYYCNKVTIGGFFWYRAYDYWGQGTQVTVSS”, the “polyreactivity (PSR sort gate)” value was “low polyreactivity”.

On to “QVQLVESGGGLVQAGGSLRLSCAASGRTFSVNAMGWYRQAPGKEREFVAAITGSTGSTFYADSVKGRFTISRDNAKNSVYLQMNSLKPDDTAVYYCAAGPWFYYWGQGTQVTVSS”, for which the “polyreactivity (PSR sort gate)” value was “low polyreactivity”.

Consider “QVQLVESGGGLVQAGGSLRLSCAASGRIFARKAMGRYRQAPGKEREWVATIRVGGGSTYYADSVKGRFTISRDNAKNTVYLQMNSLKPEDTAVYYFAVRQLYSYPGDRRGYDWGQGTQVTVSS”, for which the “polyreactivity (PSR sort gate)” value is listed as “low polyreactivity”.

For the sequence “QVQLVESGGGLVQAGGSLRLSCAASGRTFDVNAMGWYRQAPGKERELVAAIRISGGSTYYADSVKGRFTISRDNAKNTVYLQMNSLKPEDTAVYYCAAYERRYRNAYDYWGQGTQVTVSS”, the “polyreactivity (PSR sort gate)” value is listed as “high polyreactivity”.

On to “QVQLVESGGGLVQAGGSLRLSCAASGSTFSIYARGWYRPAPGKERELVAAISYSDGTTYSADSVKGRFTISRDNAKNTDYVQMNSLKPEDTAVYYCATQQIWTSWYDRFDYWGQGTQVTVSS”, for which the “polyreactivity (PSR sort gate)” value was “low polyreactivity”.

As for “QVQLVESGGGLVQAGGSLRLSCAASGSILYRYTMGWYIQAPGKERELVAAITKRGGRTYYADSVKGRFTISRDTAKNTVYLQMNSLKREDTAVYYCAAKYYTGGSFEMYYWGQGTQVTVSS”, the “polyreactivity (PSR sort gate)” value was “high polyreactivity”.

As to “QVQLVESGGGLVQAGGSLRLSCAASVSTLSDNAMGWYRQAPGKERELVASISWSGGTYYADSVKGRFTISRDNAKNTVYLQMNSLKPEDTAVYYCAAYIYYNYSRQYWYDYWGQGTQVTVSS”, the “polyreactivity (PSR sort gate)” value is listed as “low polyreactivity”.

Take “QVQHVESGGGLVQAGCSLRLSCAASGRIFKPYVMGWYRQAPGKETELVSAISWSGGASTYYADSVKGRFTISRDNAKNTVYLQMNSLKPEDTAVYYCAADPFTIPTSEFYYWGQGTQVTVSS”: the “polyreactivity (PSR sort gate)” value was “low polyreactivity”.

As to “QVQLGESGGGLVQAGGSLRLSCAASGLIFPRYAMGWYRQAPGKERELVAAITRGGSTYYADSVKGRFTISRDNAKNTVYVQMNSLKPEDSAVYYCNDELPVHWSWYDYWGQGTQVTVSS”, the “polyreactivity (PSR sort gate)” value is “low polyreactivity”.

Take “QVQLVESGGGLVQAGGSLRIRCAASGSTFSEYDMGWYRQAPGKERELVAAITTSGGSTYYADSVKGRFTISSDNAKNTVYLQMNSLKPEDTAVYYCAADSIGNYLLYDYWGQGTQVSVSS”: the “polyreactivity (PSR sort gate)” value is given as “low polyreactivity”.

Consider “QVQLVESGGGLVQAGGSLRLSCAASGSTFSAYVMGWYRQAPVKERELVAAISSIGGSTYYADSVKGRFTISRDNAKNTVYLQMNSLKPEDTAVYYCAAEPPGSTYEGGYWGQGTQVTVSS”, for which the “polyreactivity (PSR sort gate)” value is recorded as “low polyreactivity”.

Turning to “QVQLVESGGGLVQAGGSLRLSCAASGSTFYHYTMGWYRQAPGKERELVARISRSGGSTYYADSVKGRFTISRDNAKNTVYLQMNSLKPEDTAGYYCNKGSFYGSSQVGGTGYDYWGQGTQVTVSS”, the “polyreactivity (PSR sort gate)” value is “low polyreactivity”.

Turning to “QVHLVESGGGIVQAGGSLRLSCAASGIIFMDNAMGWYRQAPGKERELVAAITTGGITYYADSVKGRFTISRDNAKNTVYLQMNSLKPEDTAVYYCAADNEWPRYDYWGQGTQVTVSS”, the “polyreactivity (PSR sort gate)” value is on record as “low polyreactivity”.

Regarding “QVQLVESGGGLVQAGGSLRLSCAASGFTFVRYAMGWYRQAPGKERELVAAISSSGSSTYYADSVKGRFTISRDHEKNTVYLQMNSLKPEDTAVYYCNARAGRGEDYWGQGTQVTVSS”, the “polyreactivity (PSR sort gate)” value is recorded as “low polyreactivity”.

Regarding “QVQLVESGGGIVQAGGSLRLSCAASGLIFYTYAMGWYRQAPGKEREIVAAISRRGGSTYYADSVKGRFTISRDNAKNTVYLQMNSLKPEDTAVYYCNARGGRYGTYSHYGYWGQGTQVTVSS”, the “polyreactivity (PSR sort gate)” value is “high polyreactivity”.

In the case of “QVQLVESGGGLVQAGGSLRLSCAASGSIFAYYVMGWYRPAPGKERELVAAITRAGSTYYADSVKGRFTISRDNGKNTVYLQMNSLKPEVSAVYYCDARVGYYFRPESYYWGQGTKVTVSS”, the “polyreactivity (PSR sort gate)” value is “high polyreactivity”.
